{"source": "patent US9289490B2", "about": "“Combinations and uses thereof” (MORPHOSYS AG, priority 2010, dated 2016)", "key": {"[1]": {"test_system": "AMO-1 cells", "test": "ADCC with human PBMCs, flow cytometry (CalceinAM/PI)", "type": "cell-based", "settings": "Exp. 1-3", "experimental": "For Tables 3b-c, “Theoretical Combination” represents the addition of the values of MOR202 alone and the values of LEN alone. The normalized data of Table 3b is calculated as follows. Therefore, the specific killing values of Table 3b are calculated by subtracting the values of the controls. Then the specific killing values are compared to the MOR202 group, which is set as 1.\nThe constant m determines the shape of the dose-effect curve. We used Excel Fit software to carry out a linear regression calculation to estimate the parameters m and D50.\nThe CI-isobol method provides a quantitative assessment of synergism between drugs. A combination index (CI) is estimated from dose-effect data of single and combined drug treatments. […] Formally, the combination index (CI) of a combined drug treatment is defined as CI=D1/Dx1+D2/Dx2\nThe data is analysed in the following way: Antagonistic(AB)/C<(A/C)×(B/C) Additive(AB)/C=(A/C)×(B/C) Synergistic(AB)/C>(A/C)×(B/C) where A is the treatment with LEN alone; B is the treatment with MOR202 alone; C is response to the treatment vehicle; AB is combination of treatments A and B."}, "[2]": {"test_system": "NCI-H929 cells", "test": "ADCC with human PBMCs, flow cytometry (CalceinAM/PI)"}}, "note": "Several values for one entry are separate records, joined by “and”; a condition that tells them apart may be missing. Identical values can stand only once."}
{"molecule": "MOR03207: binds lysosyme, and is used as isotype control, as it is IgG1 (SEQ ID NO: 8, 9) (antibody, V domains shown, /mol_type=“protein” /note=“variable heavy chain” /organism=“synthetic construct”; /mol_type=“protein” /note=“variable light chain” /organism=“synthetic construct”) VH: QVQLQQSGPGLVKPSQTLSLTCAISGDSVSSNSAAWSWIRQSPGRGLEWLGRIYYRSKWYNDYAVSVKSRITINPDTSKNQFSLQLNSVTPEDTAVYYCARLDHRYHEDTVYPGMDVWGQGTLVTVSS VL: DIELTQPPSVSVAPGQTARISCSGDNLPAYTVTWYQQKPGQAPVLVIYDDSDRPSGIPERFSGSNSGNTATLTISGTQAEDEADYYCASWDPSSGVVFGGGTKLTVLGQ", "values": [{"measurement": "% dead cells, MOR03207 15 μg/ml + DMSO (Table 4a)", "setting": "[1]; control group of the effector-only experiments", "result": "15.77 % dead cells and 15.97 % dead cells and 11.45 % dead cells"}, {"measurement": "% dead cells (raw data, Table 4a)", "setting": "[1]; only PBMCs (effector cells) treated with LEN before MOR202, LEN 10 μM, MOR202 and MOR03207 15 μg/ml", "result": "17.42 % dead cells and 16.17 % dead cells and 12.17 % dead cells"}, {"measurement": "% dead cells (raw data, Table 7a), Exp. 2 and 3", "setting": "[2]; PBMCs and NCI-H929 cells treated with LEN before MOR202, LEN 5 μM, MOR202 0.07 μg/ml, MOR03207 15 μg/ml", "result": "14.09 % dead cells and 19.20 % dead cells"}, {"measurement": "% dead cells (raw data, Table 7a), Exp. 1", "setting": "[2]; PBMCs and NCI-H929 cells treated with LEN before MOR202, LEN 5 μM, MOR202 0.2 μg/ml (*), MOR03207 15 μg/ml", "result": 17.81, "unit": "% dead cells"}, {"measurement": "% dead cells, MOR03207 (15 μg/ml) + DMSO (Table 7a)", "setting": "[2]; control group, PBMCs and NCI-H929 cells LEN-treated series, Exp. 1-3", "result": "13.74 % dead cells and 18.27 % dead cells and 20.26 % dead cells"}, {"measurement": "% dead cells, MOR03207 (15 μg/ml) + DMSO (Table 8a)", "setting": "[2]; control group, effector-only series, Exp. 1-3", "result": "24.43 % dead cells and 19.52 % dead cells and 24.16 % dead cells"}, {"measurement": "% dead cells (raw data, Table 8a), Exp. 2 and 3", "setting": "[2]; only effector cells treated with LEN before MOR202, LEN 5 μM, MOR202 0.07 μg/ml, MOR03207 15 μg/ml", "result": "27.10 % dead cells and 23.19 % dead cells"}, {"measurement": "% dead cells (raw data, Table 8a), Exp. 1", "setting": "[2]; only effector cells treated with LEN before MOR202, LEN 5 μM, MOR202 0.2 μg/ml (*), MOR03207 15 μg/ml", "result": 17.07, "unit": "% dead cells"}]}
